Laboratory results taken from patent publication US20230348569A1.

Experiments:
[1] = molecular target: SARS-CoV-2 spike protein (S-wt, Wuhan-Hu-1, NCBI Accession Number MN908947.3) on VSV-SARS-CoV-2-S pseudoparticles (SARS-CoV-2) (UniProt P0DTC2); test: cell-based or functional assay
[2] = molecular target: Bt-MERS.hFc (mAb2664-L2) (MERS-CoV) (UniProt K9N5Q8); test: Luminex bead binding, supernatant
[3] = molecular target: MERS.hFc (mAb2664-L1) (MERS-CoV) (UniProt K9N5Q8); test: Luminex bead binding, supernatant
[4] = molecular target: MERS.mFc (mAb2663-L1) (MERS-CoV) (UniProt K9N5Q8); test: Luminex bead binding, supernatant

Substance	neutralization potency IC50 [1]	MFI [2]	MFI [3]	MFI [4]
mAb10934 (antibody)	0.0544 nM	–	–	–
mAb10936 (antibody)	0.111 nM	–	–	–
mAb10987 (antibody)	0.0406 nM	172 MFI	235 MFI	196 MFI
